{"source": "patent US20160084821A1", "target": "BRCA1 protein (mouse) (mouse) (UniProt P48754)", "sequence (P48754 whole entry)": "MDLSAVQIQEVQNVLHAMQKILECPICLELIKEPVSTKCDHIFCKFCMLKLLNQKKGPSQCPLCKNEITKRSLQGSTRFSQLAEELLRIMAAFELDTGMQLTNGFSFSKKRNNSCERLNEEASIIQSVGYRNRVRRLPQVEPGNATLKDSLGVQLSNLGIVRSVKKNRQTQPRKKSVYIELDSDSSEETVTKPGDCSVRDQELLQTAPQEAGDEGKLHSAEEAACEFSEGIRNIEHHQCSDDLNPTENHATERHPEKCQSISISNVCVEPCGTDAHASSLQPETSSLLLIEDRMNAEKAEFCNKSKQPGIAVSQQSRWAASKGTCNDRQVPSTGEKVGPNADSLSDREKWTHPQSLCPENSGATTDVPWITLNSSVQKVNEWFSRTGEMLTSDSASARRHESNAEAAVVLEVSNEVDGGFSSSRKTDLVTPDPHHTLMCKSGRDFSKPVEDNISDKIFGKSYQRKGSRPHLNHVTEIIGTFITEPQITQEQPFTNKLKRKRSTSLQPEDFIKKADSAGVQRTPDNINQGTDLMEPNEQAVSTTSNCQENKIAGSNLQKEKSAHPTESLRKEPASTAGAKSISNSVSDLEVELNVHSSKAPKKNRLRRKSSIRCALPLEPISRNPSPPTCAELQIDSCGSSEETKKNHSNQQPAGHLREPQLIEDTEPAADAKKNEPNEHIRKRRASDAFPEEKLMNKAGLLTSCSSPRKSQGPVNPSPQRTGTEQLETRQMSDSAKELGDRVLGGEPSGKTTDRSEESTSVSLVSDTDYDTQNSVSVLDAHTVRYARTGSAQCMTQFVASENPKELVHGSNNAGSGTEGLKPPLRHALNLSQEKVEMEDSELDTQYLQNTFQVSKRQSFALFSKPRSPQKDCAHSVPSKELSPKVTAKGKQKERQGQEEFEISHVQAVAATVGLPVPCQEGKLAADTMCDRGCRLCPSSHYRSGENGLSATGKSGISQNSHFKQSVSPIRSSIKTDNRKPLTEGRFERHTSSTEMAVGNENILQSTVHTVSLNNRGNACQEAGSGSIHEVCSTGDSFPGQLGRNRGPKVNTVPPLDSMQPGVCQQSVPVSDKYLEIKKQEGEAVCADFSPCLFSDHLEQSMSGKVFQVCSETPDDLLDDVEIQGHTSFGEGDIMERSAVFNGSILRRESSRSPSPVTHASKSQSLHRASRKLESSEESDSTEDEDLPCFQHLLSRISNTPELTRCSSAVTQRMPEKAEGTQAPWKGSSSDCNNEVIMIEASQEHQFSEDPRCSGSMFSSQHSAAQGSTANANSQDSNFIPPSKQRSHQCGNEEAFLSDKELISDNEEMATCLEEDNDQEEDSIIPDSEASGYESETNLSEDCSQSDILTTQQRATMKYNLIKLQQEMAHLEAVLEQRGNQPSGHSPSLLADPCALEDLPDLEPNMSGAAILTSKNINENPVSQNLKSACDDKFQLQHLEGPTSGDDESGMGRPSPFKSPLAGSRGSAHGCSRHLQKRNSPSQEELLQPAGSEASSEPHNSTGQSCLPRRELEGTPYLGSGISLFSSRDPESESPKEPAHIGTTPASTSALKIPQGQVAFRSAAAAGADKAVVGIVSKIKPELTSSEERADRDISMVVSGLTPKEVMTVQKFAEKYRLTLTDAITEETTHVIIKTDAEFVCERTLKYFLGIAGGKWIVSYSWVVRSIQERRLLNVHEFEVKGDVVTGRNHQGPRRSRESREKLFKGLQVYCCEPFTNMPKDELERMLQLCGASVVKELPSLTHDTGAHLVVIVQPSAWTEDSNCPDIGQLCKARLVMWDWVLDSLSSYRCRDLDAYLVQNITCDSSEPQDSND", "assay": "cell-based or functional assay"}
{"substance": "FANCD2 protein (mouse, on meiotic chromosomes of spermatocytes) (from UniProt Q80V62 1-1450)", "values": [{"measurement": "anti-FANCD2 foci co-localized with regions of intense anti-BRCA1 staining (20 pachytene nuclei)", "value": 65, "unit": "%"}]}
